This is an account of results in publication PMC8632965.

The target of experiment [1] is extracellular portion of CD147 (ECD), amino acids 22–205 (human) (UniProt P35613). Kind of experiment: SPR; Biacore T200; CD147ECD peptides diluted in 10 mM sodium acetate pH 4.5 and immobilised on a CM5 chip; purified proteins injected as analytes at 10 µL/min; BSA signal subtracted.
The target of experiment [2] is domain 1 of CD147 (human) (UniProt P35613). The description is as above.

In the case of “extracellular portion of CD98 (212-630 of CD98hc) (domain or fragment)”, the figures for the equilibrium dissociation constant (Kd) in experiment [1] and in experiment [2] were 431 nM and 3530 nM, respectively.
